Test results reported in the DeepSol protein solubility set.

Test: soluble on expression in E. coli; label from the status in PepcDB or PDB records

| Sequence | soluble on expression in E. coli |
| --- | --- |
| MGSDKIHHHHHHMALSLRACILLLKEHHLLKSAAIQNTEDVDMTGIAYDSRKVSGPTLFFCKGDKFRPIYLSMAKDNGARTYVAEKPYVEGNGLNALIVRNITKAMAILSAAFFDYPQDDLFVIAYTGTKGKTTASYFTEAILNEARPRHIALFSTIDTVVGPEPDQRFKSNLTTPESLDLFRDMREAVENGMTHLVMEVSSQAYLRNRVFGLTYDVGFFLNITPDHIGPNEHPTFANYLHNKLQLLVNARKVVINAETEHFDQVYAAATTTTYPESIYLFASAGFRPKRDDIDIDFRFDSQEADVAESRFTLVPVTEKAAALNIGGHYSLALIGDFNESNATAAIIGAGLAGVDASAAVPGIAKVKIPGRMEHTKVAGHGAVYVDYAHNYASMKALLSFLKHAYKDPRLLVVVGSPGDKGVSRRPGFAKVLTEFATEAFLTTDDPGYEDPANIIEEIDSKIDHSKVKVHKVLDRKKAIAEAISDSGPNDIVVVAGKGADPYQKVRGVNTPWPTDMAVVKQVAKSLQEG | not soluble |
| MLELSESNIHLNANAIDKQQAIEMAVSALVQAGNVENGYLQGMLARELQTSTFLGNGIAIPHGTLDTRLMVKKTGVQVFQFPQGIEWGEGNIAYVVIGIAARSDEHLSLLRQLTHVLSDEDTAAKLAKITDVAEFCAILMGETIDPFEIPAANISLDVNTQSLLTLVAINAGQLQVQSAVENRFISEVINNAALPLGKGLWVTDSVVGNVKNALAFSRAKTIFSHNGKAVKGVITVSAVGDQINPTLVRLLDDDVQTTLLNGNSTEILTALLGSSSDVETQSVEGAVVGTFTIRNEHGLHARPSANLVNEVKKFTSKITMQNLTRESEVVSAKSLMKIVALGVTQGHRLRFVAEGEDAKQAIESLGKAIANGLGENVSAVPPSEPDTIEIMGDQIHTPAVTEDDNLPANAIEAVFVIKNEQGLHARPSAILVNEVKKYNASVAVQNLDRNSQLVSAKSLMKIVALGVVKGTRLRFVATGEEAQQAIDGIGAVIESGLGE | not soluble |
| MSLDTPTHLTLMVSGTAKMIYLPATLAQRLGYFRDEGLDVELLSQPAGVDAESELLTGYAQGVVGFYDHTIDLQTKGKEVRAIVVFSHVPGEAEVVSTRLPATVQSLHDLRGRTLGVTGLGSSTSFLTRHLMAQQGLGPGEYTMLPVGAEHSFVSALRSGRIDAGMTTDPTATRLIRNKEARMLLDLRTIESTRAALGGPYPAACLYVQTEWLEAHPELATKLARAFVRTLRYLRSHRAEDIAAHMPPEFRRDRPDVYMQALIAALPTFSDDGRMPADGPATVLRVLSTSNPNARDKHIDLSRTYTNRFVDQAKEGHHHHHH | soluble |
| MRAVIPYKKAGAKSRLSPVLSLQEREEFVELMLNQVISSLKGAGIEQVDILSPSVYGLEEMTEARVLLDEKDLNEALNRYLKEAEEPVLIVMADLPLLSPEHIKEISSTEKDVCIVPGKGGGTNALFIKNPSKYRVKYYGSSFLTHCSIATDSGQDFEIYDSFMAGTDIDEPEDLVELLIHGKGAAKDYIESKFRLEVKKGRVGLVPL | soluble |
| MSLAETVLEKARAKNEIRIATSDSLKPWGYMDDTNKPIGFNLDVSREMGKRMGFGKVTFVTDSYKNFISGLNADRYDMVVAILTPTEERRKSADFSNPYMVVSKNIFVRDDNTSIRSLEDLAGKRLGVAAGTTDEAWARQHVKDAQIRVYDNFFLALQDLAIGRVDARITDRVTGMTAAKEGRFPVKIAGPDLSQDIGAIAYKKGQDDLAAIVNKVIQEMVDDGSLNEISRKWLAGIEMGEELKKLPKDAREGHHHHHH | soluble |
| SEVRWCATSDPEQHKCGNMSEAFREAGIQPSLLCVRGTSADHCVQLIAAQEADAITLDGGAIYEAGKEHGLKPVVGEVYDQEVGTSYYAVAVVRRSSHVTIDTLKGVKSCHTGINRTVGWNVPVGYLVESGRLSVMGCDVLKAVSDYFGGSCVPGAGETSYSESLCRLCRGDSSGEGVCDKSPLERYYDYSGAFRCLAEGAGDVAFVKHSTVLENTDGKTLPSWGQALLSQDFELLCRDGSRADVTEWRQCHLARVPAHAVVVRADTDGGLIFRLLNEGQRLFSHEGSSFQMFSSEAYGQKDLLFKDSTSELVPIATQTYEAWLGHEYLHAMKGLLCDPNRLPPYLRWCVLSTPEIQKCGDMAVAFRRQRLKPEIQCVSAKSPQHCMERIQAEQVDAVTLSGEDIYTAGKKYGLVPAAGEHYAPEDSSNSYYVVAVVRRDSSHAFTLDELRGKRSCHAGFGSPAGWDVPVGALIQRGFIRPKDCDVLTAVSEFFNASCVPVNNPKNYPSSLCALCVGDEQGRNKCVGNSQERYYGYRGAFRCLVENAGDVAFVRHTTVFDNTNGHNSEPWAAELRSEDYELLCPNGARAEVSQFAACNLAQIPPHAVMVRPDTNIFTVYGLLDKAQDLFGDDHNKNGFKMFDSSNYHGQDLLFKDATVRAVPVGEKTTYRGWLGLDYVAALEGMSSQQC | soluble |
| MAGDPMERIESRRARTVRQMLNIRKITYLEKTRKGIEMNSKTIGIDIGGANTKLASSDGTIVELHYLPLWKNTMLPEVLKEISQRLKPENVAVVMTGELADCFEDKEQGIRFIKENVDSAFGSGKVSYINSQGRFRKENDPLRDLAAANWAASARLIGEEIGDCIFVDVGSTTSDIIPVISGEHRAGHTDFERLLRSELVYAGTLRTNLAALLEKVKLEKGICRTSSELFATTADAYLILGEINEDKYTCETADGVGRSKIEAMRRIARLVCADLSEVGETEVYEIAEQVKEKQVSALTEAISEVAERNRLEKIAAAGLGEFLISEAAERLGFECISVAGRWGEEISKVFPAYAAARLLDKYSELEHHHHHH | not soluble |
| ESLSGEDAFPYRHQIVEIPPIELIVIEHRLHQLTCGQCGTNTRAKLPDDVNPSEYGVRVVAMVALLSGVYRNSQRMVQSALADLFGISMSLGTVNTLRIEANNAVANCVDEAKLYVQHSNVVGADETGFNQGNIDGGNPKQRQAWLWVGVTPLVTFFEVALTRCTSAVKNLLGENFAGILTSDRHGAYNWVDI | not soluble |
| MGSDKIHHHHHHMHILFLTHYFPPEVNAPASRTYENARRWVRDGHHVTVITCAPNHPKGVIYPGYRNRWCQQEDLDGIRVLRVKTYLSANKGFAKRIANYLSYMLSSTVFSCLVRDIDVVVSTSPQFFCGLAGYFVSRARSAPWVVEIRDLWPESIIAVGAIRNRTVIDLLEGLETFMYRRADHVVAVTDAFKRHIAGRGVGRDRISVIKNGADLERFTSGPRENSFRREHGLEGKFVVSYVGTHGMAHGLNTIFETAEAMRSCEDIVFLLVGDGAEREPLLARKAELGLTNVLMLPQQPKERMPEIINASDACMVLLKKTDLFKTVIPSKIFEAMAMERPIILGVEGESREIVEEGCCGLCIEPENAAELADAIRRLRDDGKLADELGQNGRRFVSAVFNREVLARRYLETLSSMVPLPASTIGVIGKELP | not soluble |
| MRYIMASPINSGIMMANLCPSTFLDKNRNVAAELDIKNNEKKYSPGSNFAKWMLQEIKRLILNIMSGSRSINTDILDYFHPMPGTENNGNRTWVAATGEDEYIEIKQTGDKSFNITLVGRDKPSRKEIPYSGVAVATIIKSLSEKTSALETHSADTVLRKKLVNSIVMKNTDFNYEIPAGILSNIYDLLKLRIKKDEGYVPVQESFKRTDVFFDSMIMDAH | not soluble |
| MTSRVDPANPGSELDSAIRDTLTYSNSPVPNALLTASESGFLDAAGIELDVLSGQQGTVHFTYDQPAYTRFGGEIPPLLSEGLRAPGRTRLLGITPLLGRQGFFVRDDSPITAAADLAGRRIGVSASAIRILRGQLGDYLELDPWRQTLVALGSWEARALLHTLEHGELGVDDVELVPISSPGVDVPAEQLEESATVKGADLFPDVARGQAAVLASGDVDALYSWLPWAGELQATGARPVVDLGLDERNAYASVWTVSSGLVRQRPGLVQRLVDAAVDAGLWARDHSDAVTSLHAANLGVSTGAVGQGFGADFQQRLVPRLDHDALALLERTQQFLLTNNLLQEPVALDQWAAPEFLNNSLNRHR | soluble |
| MGSDKIHHHHHHMPASSHQPLDLAKFTLSSPTEIAQHLSNIAKHGHMVTVFANKGKNFILTRLLEVDYQAGVFTFDWGAEEETNTQVLNSERNVFVCSPEGVKTQFVAGQISQVMVDDRPAFQCRLPEQVIKLQRREFFRIQTPLGSPVFCRIGDFNQRSIDLALFDISLGGMSLWLPGIDTPGFDIGQQYLQCSIDLKPFGTLALGIEVRHRLTARMRNGNEAMRIGCSYLNLSAPMETIIQRYVGFLERERRAMVG | not soluble |
| MAEVKEKRHEELGLSDEQVLEMFRTMLLARKIDERMWLLNRAGKIPFVISCQGQEAAQVGAAFALDREKDYALPYYRDMGVVLAFGMTAKELMLSGFAKAGDPNSGGRQMPGHFGQKKNRIVTGSSPVTTQVPHAVGIALAGKMEKKDLVTFVTFGEGSSNQGDFHEGANFAGVHKLPVIFMCENNKYAISIPVEKQLACKNVSDRAIGYGMPGYTVDGNDPLAVYKAVKEAADRGRRGEGPTLIETVSYRLTAHSSDDDDRVYRDKEEVEEAKKNDSIVTFAAYLKEVGVLTEESEKQMLDEIMHIVNEATEYAENAPYAAPEDALKHVYAE | not soluble |
| MSLKDFAGRTAFVTGGANGVGIGLVRQLLNQGCKVAIADIRQDSIDKALATLEAEGSGPEVMGVQLDVASREGFKMAADEVEARFGPVSILCNNAGVNLFQPIEESSYDDWDWLLGVNLHGVVNGVTTFVPRMVERVKAGEQKGGHVVNTASMAAFLAAGSPGIYNTTKFAVRGLSESLHYSLLKYEIGVSVLCPGLVKSYIYASDDIRPDALKGEVKPVDKTAVERLAGVHEFGMEPDVIGARVIEAMKANRLHIFSHPDHKEELREVFDEIIAEYQDYPKDPGYDQRVAFEKFRADSFAEARRQSRAADEGHHHHHH | soluble |
| MSLKLVKLETFSTEFVCFVRATAEDGAQGWGQVAPYYADITAQVLHRQVAPYALGMACEDIDAMLDIVRDREHKFPGSYLRRAMGGVDTALWDMHGRRAGKPVCVLIGGTPGPVRAYGSSMKRDITPRDEAARLVRLRDEQGFDAFKFRIGAEVGRDRDEWPGRTEEIVPTMRRAMGDDVALLVDANSCYSPARAIEVGRMLEQHGISHYEEPCPYWEFAQTKEVTDTLDLDITGGEQDCLMERWQTMIADRVVDVLQPDICYLGGLSRTLRVARMAEAAGMPITPHAANLSMVTLFTMHLLRAIPNAGKYLEFSIEGLDYYPWQQGLFTSDPYRIEEGHATVTDAPGWGVDVNPDWLARSEGHHHHHH | not soluble |
| MILLQLNHISKSFDGEDIFTDVDFEVKTGERIGIVGRNGAGKSTLMKIIAGVENYDSGNVSKIKNLKLGYLTQQMTLNSNATVFEEMSKPFEHIKRMESLIKEETDWLSKHANDYDSDTYKTHMSRYESLSNQFEQLEGYQYESKIKTVLYGLNFSEEDFNKPINDFSGGQKTRLSLAQMLLNEPDLLLLDEPTNHLDLETTKWLEDYLRYFKGAIVIISHDRYFLDKIVTQIYDVALGDVKRYVGNYEEFIQQRDLYYQKRMQEYESQQAEIKRLETFVEKNITRASTSGMAKSRRKILEKMERIDKPMLDAKSANIQFGFDRNTGNDVMHVKNLEIGYQTAITKPMSIEVSKGDHIAIIGPNGIGKSTLIKTIANQQKALNGDITFGANLQIGYYDQKQAEFKSSKTILDYVWDQYPLMNEKDIRAVLGRFLFVQDDVKKIINDLSGGEKARLLLALLMLQRDNVLILDEPTNHLDIDSKEMLEQALQHFEGTILFVSHDRYFINQLANKVFDLTIDGGKMYLGDYQYYIEKVEEAEALKAHQEEQSVNVQAHKKSMEQSSYHNQKEQRREQRKLERQISECENEIETLETTILQIDEQLTQPEVYNNPQKANELAIQKQDSEQKLEHAMSKWEELQQKL | not soluble |
| MSETVYTAKDYKSGQPRWCPGCGDHAFLNSLHKAMAELGVAPHNIAVISGIGCSSRLPYYVNTYGFHTIHGRAAAVATGAKVANPDLTIWQISGDGDGLAIGGNHFIHAVRRNIDLNMILLNNRIYGLTKGQYSPTSDRGFVSKSSPYGTVEDPFHPAELCFGARGRFFARCVAVDGPASVEVLKAAANHKGASVVEVLQNCVIFNDGTHESVATKEGRSKNAIYLEHGKPMLFGENKEFGLMQEGFGLKVVKLGENGVTEKDILIHNAHSMDNTLQLKLALMEGPDFPIALGVIRDVEAPTYNDAVAEQIDEVKAKKKYHNFQELLMTNETWEVK | not soluble |
